Results published in patent publication EP4177273A1.

Columns and labels:
[1] = target: human Claudin 18 splice variant 2 (CLDN18.2) (human); assay: cell-based or functional assay
[2] = target: human Claudin 18 splice variant 2 (CLDN18.2) (human); assay: FACS with FITC-labeled IMAB362 on Patu8902-LVT cells 2 days after transduction with human CLDN18.2
[3] = target: human Claudin 18 splice variant 2 (CLDN18.2) (human); assay: FACS with FITC-labeled IMAB362 on YAPC-LVT cells 2 days after transduction with human CLDN18.2
[4] = target: human Claudin 18 splice variant 2 (CLDN18.2) (human); assay: FACS with FITC-labeled IMAB362 on HPAC-LVT cells 2 days after transduction with human CLDN18.2
[5] = target: human Claudin 18 splice variant 2 (CLDN18.2) (human); assay: FACS, 2E5 Panc05.04 cells/100 µl stained with 50 µg/ml IMAB362
[6] = target: human Claudin 18 splice variant 2 (CLDN18.2) (human); assay: FACS with FITC-labeled IMAB362 on CAPAN1-LVT cells 2 days after transduction with human CLDN18.2
[7] = target: human Claudin 18 splice variant 2 (CLDN18.2) (human); assay: FACS with FITC-labeled IMAB362 on DANG-LVT cells 2 days after transduction with human CLDN18.2
[8] = target: human Claudin 18 splice variant 2 (CLDN18.2) (human); assay: FACS with FITC-labeled IMAB362 on Suit2-LVT cells 2 days after transduction with human CLDN18.2
[9] = target: human Claudin 18 splice variant 2 (CLDN18.2) (human); assay: FACS, 2E5 Patu8988S cells/100 µl stained with 50 µg/ml IMAB362
[10] = target: human Claudin 18 splice variant 2 (CLDN18.2) (human); assay: FACS with FITC-labeled IMAB362 on MiaPaCa-2-LVT cells 2 days after transduction with human CLDN18.2
[11] = target: human Claudin 18 splice variant 2 (CLDN18.2) (human); assay: FACS with FITC-labeled IMAB362 on BxPC3-LVT cells 2 days after transduction with human CLDN18.2

ADCC EC50 (ng/ml), BxPC3 LVT cells, human PBMC E:T 40:1 [1]: 47.7 ng/mL
ADCC EC50 (ng/ml), CAPAN1-LVT cells, human PBMC E:T 40:1 [1]: 65 ng/mL
ADCC EC50 (ng/ml), DANG cells (endogenous CLDN18.2), human PBMC E:T 40:1 [1]: 4980 ng/mL
ADCC EC50 (ng/ml), DANG-LVT cells, human PBMC E:T 40:1 [1]: 52.3 ng/mL
ADCC EC50 (ng/ml), HPAC-LVT cells, human PBMC E:T 40:1 [1]: 117 ng/mL
ADCC EC50 (ng/ml), MiaPaCa2-LVT cells, human PBMC E:T 40:1 [1]: 23.4 ng/mL
ADCC EC50 (ng/ml), Panc05.04 cells (endogenous CLDN18.2), human PBMC E:T 40:1 [1]: 5730 ng/mL
ADCC EC50 (ng/ml), Patu8902-LVT cells, human PBMC E:T 40:1 [1]: 49.2 ng/mL
ADCC EC50 (ng/ml), Patu8988S cells (endogenous CLDN18.2), human PBMC E:T 40:1 [1]: 175 ng/mL
ADCC EC50 (ng/ml), Suit2-LVT cells, human PBMC E:T 40:1 [1]: 73.2 ng/mL
ADCC EC50 (ng/ml), YAPC-LVT cells, human PBMC E:T 40:1 [1]: 29.5 ng/mL
ADCC EC50, DANG/Panc05.04 cells, PBMCs of different donors [1]: 0.1 to 38 µg/mL
ADCC EC50, Patu8988S cells, PBMCs of different donors [1]: 0.01 to 1.4 µg/mL
ADCC Max. lysis (%), BxPC3 LVT cells, human PBMC E:T 40:1 [1]: 90.6%
ADCC Max. lysis (%), CAPAN1-LVT cells, human PBMC E:T 40:1 [1]: 92.6%
ADCC Max. lysis (%), DANG cells (endogenous CLDN18.2), human PBMC E:T 40:1 [1]: 52.5%
ADCC Max. lysis (%), DANG-LVT cells, human PBMC E:T 40:1 [1]: 85.9%
ADCC Max. lysis (%), HPAC-LVT cells, human PBMC E:T 40:1 [1]: 76.2%
ADCC Max. lysis (%), MiaPaCa2-LVT cells, human PBMC E:T 40:1 [1]: 78.1%
ADCC Max. lysis (%), Panc05.04 cells (endogenous CLDN18.2), human PBMC E:T 40:1 [1]: 67.1%
ADCC Max. lysis (%), Patu8902-LVT cells, human PBMC E:T 40:1 [1]: 74.1%
ADCC Max. lysis (%), Patu8988S cells (endogenous CLDN18.2), human PBMC E:T 40:1 [1]: 70.1%
ADCC Max. lysis (%), Suit2-LVT cells, human PBMC E:T 40:1 [1]: 81.2%
ADCC Max. lysis (%), YAPC-LVT cells, human PBMC E:T 40:1 [1]: 91.5%
CDC EC50 (ng/ml), CAPAN1-LVT cells, human serum pool [1]: 970 ng/mL
CDC EC50 (ng/ml), MiaPaCa2-LVT cells, human serum pool [1]: 340 ng/mL
CDC EC50 (ng/ml), Patu8902-LVT cells, human serum pool [1]: 291 ng/mL
CDC EC50, MiaPaCa-2-LVT cells pretreated with gemcitabine [1]: 4.68 µg/mL
CDC EC50, MiaPaCa-2-LVT, Suit2-LVT and CAPAN1-LVT cells, human serum [1]: 0.3 to 2.6 µg/mL
CDC EC50, medium cultivated MiaPaCa-2-LVT cells [1]: 7.67 µg/mL
CDC Max. lysis (%), CAPAN1-LVT cells, human serum pool [1]: 79.1%
CDC Max. lysis (%), MiaPaCa2-LVT cells, human serum pool [1]: 78.4%
CDC Max. lysis (%), Patu8902-LVT cells, human serum pool [1]: 76.7%
Transduction efficiency (% cells positive) [2]: 93%
Transduction efficiency (% cells positive) [3]: 82.2%
Transduction efficiency (% cells positive) [4]: 97.3%
CLDN18 surface expression (FACS), % positive cells [5]: 15%
Transduction efficiency (% cells positive) [6]: 89.6%
Transduction efficiency (% cells positive) [7]: 87.5%
Transduction efficiency (% cells positive) [8]: 92.2%
CLDN18 surface expression (FACS), % positive cells [9]: 81.7%
Transduction efficiency (% cells positive) [10]: 96.3%
Transduction efficiency (% cells positive) [11]: 92.8%
Substance: IMAB362 (antibody)
